The record followed here is patent US20110158908A1 (SAPPORO MEDICAL UNIVERSITY, published 2011).

Sequences and labels used below:
B1: Protein G Sepharose (other, UniProt P19909 303-497, looked up)
chain: TYKLILNGKTLKGETTTEAVDAATAEKVFKQYANDNGVDGEWTYDDATKTFTVTEKPEVIDASELTPAVTTYKLVINGKTLKGETTTEAVDAATAEKVFKQYANDNGVDGEWTYDDATKTFTVTEKPEVIDASELTPAVTTYKLVINGKTLKGETTTKAVDAETAEKAFKQYANDNGVDGVWTYDDATKTFTVTE

Assay [1] addresses T1, CSABP (cyclosporin A-binding protein), endogenous in MH14 cells (human, UniProt Q9H6S0 1-1430).
T1 construct: also called CSABP protein; CSABP molecule
T1 sequence: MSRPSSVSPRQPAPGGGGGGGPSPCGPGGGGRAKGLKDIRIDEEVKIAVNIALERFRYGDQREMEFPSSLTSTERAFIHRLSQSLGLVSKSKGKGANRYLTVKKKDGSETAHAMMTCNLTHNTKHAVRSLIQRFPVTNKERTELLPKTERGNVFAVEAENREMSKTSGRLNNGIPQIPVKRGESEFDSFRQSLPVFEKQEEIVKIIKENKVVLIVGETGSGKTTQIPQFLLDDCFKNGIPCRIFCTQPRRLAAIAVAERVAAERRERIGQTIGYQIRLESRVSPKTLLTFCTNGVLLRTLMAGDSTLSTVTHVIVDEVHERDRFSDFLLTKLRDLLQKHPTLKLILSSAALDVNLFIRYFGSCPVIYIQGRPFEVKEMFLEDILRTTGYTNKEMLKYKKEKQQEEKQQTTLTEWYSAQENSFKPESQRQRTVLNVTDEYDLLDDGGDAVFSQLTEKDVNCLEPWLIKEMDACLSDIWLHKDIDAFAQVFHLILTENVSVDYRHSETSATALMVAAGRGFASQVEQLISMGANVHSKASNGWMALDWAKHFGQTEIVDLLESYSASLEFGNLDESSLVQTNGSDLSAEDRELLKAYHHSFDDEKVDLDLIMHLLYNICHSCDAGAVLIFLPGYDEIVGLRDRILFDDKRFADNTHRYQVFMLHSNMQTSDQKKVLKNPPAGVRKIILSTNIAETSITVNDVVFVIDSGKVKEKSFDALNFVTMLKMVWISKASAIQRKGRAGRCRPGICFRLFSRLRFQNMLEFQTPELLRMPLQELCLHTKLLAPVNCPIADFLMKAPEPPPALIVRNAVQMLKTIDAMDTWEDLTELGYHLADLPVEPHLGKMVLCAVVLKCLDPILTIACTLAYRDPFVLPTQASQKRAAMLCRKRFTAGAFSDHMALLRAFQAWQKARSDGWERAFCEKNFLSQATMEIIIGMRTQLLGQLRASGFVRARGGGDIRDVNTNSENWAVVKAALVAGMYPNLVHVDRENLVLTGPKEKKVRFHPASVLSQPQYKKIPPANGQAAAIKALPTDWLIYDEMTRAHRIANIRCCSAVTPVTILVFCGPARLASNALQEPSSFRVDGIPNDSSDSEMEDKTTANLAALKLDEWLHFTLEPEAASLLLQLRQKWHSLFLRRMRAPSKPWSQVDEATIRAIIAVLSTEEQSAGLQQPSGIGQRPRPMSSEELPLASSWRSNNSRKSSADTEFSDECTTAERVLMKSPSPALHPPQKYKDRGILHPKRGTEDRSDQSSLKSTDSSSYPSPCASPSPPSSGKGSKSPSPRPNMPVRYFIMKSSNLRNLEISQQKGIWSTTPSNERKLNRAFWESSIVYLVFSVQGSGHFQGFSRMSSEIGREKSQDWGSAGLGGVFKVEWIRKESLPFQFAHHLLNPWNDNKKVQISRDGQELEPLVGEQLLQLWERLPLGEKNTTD
The assay can be described thus: Protein G Sepharose control precipitation from MH14 cell extract, western blot with anti-CSABP antibody. A general note: A western blot detects proteins with antibodies after separation by electrophoresis.

Assay [2] concerns the target B1. The assay can be described thus: Protein G Sepharose control precipitation from MH14 cell extract, western blot with anti-CyPB antibody.

In the case of B1, the binding result in assay [1] is reported as “no binding”.

B2: cyclophilin B (CyPB) (enzyme)
chain: not shown
Regarding B2, in assay [2], the binding result is given as “no binding”.
